Source: US9222119B2, “Detection of degradative enzymes and biomolecules in bodily fluids” (The Regents of the University of California, priority 2008, dated 2015)
diamino‑ethyl = ethylenediamine linker to Bodipy FL

What was measured:
Format in all cases: biochemical
[1] = molecular target: T1, bovine pancreatic α-chymotrypsin (Bos taurus, UniProt P00766); assay: Detection of α-chymotrypsin in 1×PBS buffer using NCDPS, agarose gel electrophoresis; details: 1×PBS pH 7.8, 300 μM substrate, 1 h reaction
T1 construct: from tissue; host or cells: bovine pancreas (lyophilized enzyme)
Procedure: (§1) In this experiment a 1 mg/ml (650 μM) stock solution of the NCDPS substrate Ac-N-[…]diamino-ethyl-Bodipy FL (SEQ ID NO:29) (MW 1537.4) was prepared by dissolving the peptide in 1× phosphate buffered saline (PBS) at pH 7.8. […] Both proteases were serially diluted in 1 mM HCl in order to obtain the desired concentrations. A solution of 486 μg/ml (316 μM) of the Ac-N-[…]diamino-ethyl-Bodipy FL peptide was prepared in 1×PBS (pH 7.8). Aliquots of 14.4 μl of the […] peptide solution (1×PBS) were mixed with 1 μl aliquots of various concentrations of the proteases or 1 ul of 1 mM HCl for the negative control, and then allowed to react for one hour. 6 μl samples containing 3 μg (300 μM) of the substrate with protease concentrations ranging from 500 nM (lanes 1-2), 100 nM (lanes 3-4), 50 nM (lanes 5-6), 30 nM (lanes 7-8), 20 nM (lanes 9-10) or 0 nM (lanes 11-12) were loaded into the wells of a 4% high resolution agarose gel run in 0.5×TBE. […] Gels were then quantified with a Storm 480 gel scanner using ImageQuant v5.2 (Molecular Dynamics, Sunnyvale, Calif.) (fluorescence mode, high sensitivity, 100 μm pixel size, 1000V photomultiplier tube) with a 450 nm excitation filter and a 520 nm long pass emission filter. […]

[2] = molecular target: T2, bovine pancreatic trypsin (Bos taurus, UniProt P00760); assay: Detection of trypsin in human plasma using NCDPS; details: un-diluted human plasma, 1 h reaction
T2 construct: from tissue; host or cells: bovine pancreas (lyophilized enzyme)
T2 sequence (P00760 24-246): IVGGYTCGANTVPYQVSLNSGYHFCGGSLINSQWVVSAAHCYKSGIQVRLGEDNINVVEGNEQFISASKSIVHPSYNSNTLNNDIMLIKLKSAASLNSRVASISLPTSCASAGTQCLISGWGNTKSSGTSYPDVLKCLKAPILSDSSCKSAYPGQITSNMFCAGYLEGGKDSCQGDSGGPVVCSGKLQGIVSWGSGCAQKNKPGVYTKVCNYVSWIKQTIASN
Procedure: (§2) In this example a 1 mg/ml (650 μM) stock solution of the peptide substrate was prepared from lyophilized Ac-N-[…]diamino-ethyl-Bodipy FL (MW 1537.4) (SEQ ID NO:29) by dissolving the peptide in 1×PBS at pH 7.8. […] Both proteases were serially diluted in 1 mM HCl in order to obtain the desired concentrations. A solution of 486 μg/ml (316 μM) of the Ac-N-[…]diamino-ethyl-Bodipy FL peptide was prepared in un-diluted human plasma. Aliquots of 14.4 μl of the peptide plasma solution were mixed with 1 μl aliquots of various concentrations of the proteases or 1 ul of 1 mM HCl for the negative control and then allowed to react for one hour. Samples of about 6 μl each containing 3 μg (300 μM) of the substrate with protease concentrations that ranged from 500 nM (lanes 1-2), 100 nM (lanes 3-4), 50 nM (lanes 5-6), 30 nM (lanes 7-8), 20 nM (lanes 9-10) or 0 nM (lanes 11-12) were loaded into the wells of a 4% high resolution agarose gel in 0.5×TBE. […] Gels were then quantified with a Storm 480 gel scanner using ImageQuant v5.2 (Molecular Dynamics, Sunnyvale, Calif.) (fluorescence mode, high sensitivity, 100 μm pixel size, 1000V photomultiplier tube) with a 450 nm excitation filter and a 520 nm long pass emission filter. […]

[3] = molecular target: T1, bovine pancreatic α-chymotrypsin; assay: Detection of α-chymotrypsin in human plasma using NCDPS; details: un-diluted human plasma, 1 h reaction
Procedure: as §2

[4] = molecular target: T2, bovine pancreatic trypsin; assay: Detection of trypsin in 1×PBS buffer using NCDPS, agarose gel electrophoresis; details: 1×PBS pH 7.8, 300 μM substrate, 1 h reaction
Procedure: as §1

[5] = tested on: human pancreatic α-chymotrypsin; assay: Detection of chymotrypsin activity in whole rat blood or 1×PBS using NCDPS substrate; details: 1×PBS or whole rat blood, 1 h incubation, α-chymotrypsin stocks 2, 0.4, 0.08, 0 mg/ml
Procedure: In this experiment 7 μl of 1× phosphate buffered saline (PBS) at pH 7.8 or 7 μl of whole rat blood were mixed with the following: 7 μl of 1 mg/ml Acetyl-N-[…]Bodipy FL (SEQ ID NO:26) in 1×PBS pH 7.8; 0.4 μl of 2 M CaCl2; and 0.5 μl of the following concentrations 2 mg/ml, 0.4 mg/ml, 0.08 mg/ml and 0 mg/ml of human pancreatic α-chymotrypsin. The mixtures were incubated for 1 hour and then 6 μl of sample was loaded into the wells of a 4% high resolution agarose gel. The five wells on the left-hand side were loaded with 1×PBS samples and the five wells on the right right-hand side were loaded with the whole rat blood samples. Electrophoresis was performed for 30 minutes at 80 V and then the gel was imaged using a BioDoc-It® System with a Model M-26 transilluminator (UVP, Upland, Calif.). The upper FIG. 26A show the gel before the electric field was applied and the quenching of fluorescent signal from NCDPS substrate by the blood samples can clearly be seen in the five wells on the […] side. This sensitivity-reducing quenching issue would occur for many of the current types of fluorescent enzyme assays utilizing classical fluorogenic substrates. As a result, these latter methods typically require considerable sample preparation, which is time-consuming and makes the measurements less accurate, in order to recover fluorescent signal.

Row | Substance | detection level by inspection of gel (FIG. 20) [1] | detection level by inspection of gel (FIG. 22) [2] | detection level by inspection of gel (FIG. 22) [3] | detection level by inspection of gel (FIG. 20) [4] | cleavage products on gel after electrophoresis (FIG. 26B) [5]
1 | Ac-N-Asp-Gly-Asp-Ala-Gly-Tyr-Ala-Gly-Leu-Arg-Gly-Ala-Gly-diamino-ethyl-Bodipy FL (Ac-DGDAGYAGLRGAG-{diamino‑ethyl-Bodipy FL}) [SEQ ID NO:29, NCDPS substrate for chymotrypsin and trypsin, net charge −1] | about 20 nM | about 20 nM | about 20 nM | about 30 nM | –
2 | Acetyl-N-Asp-Gly-Asp-Ala-Gly-Tyr-Ala-Gly-Leu-Arg-Gly-Ala-Gly-Bodipy FL (Ac-DGDAGYAGLRGAG-{Bodipy FL}) | – | – | – | – | appearance of cleavage products in the first three 1×PBS samples and in the blood samples
